Assay [1] concerns the target RcATXR5 (ATXR5 SET domain) (Ricinus communis, UniProt B9RU15). Format: binding.
In assay [2] the target is nucleosome core particle (Xenopus laevis recombinant histone octamer on 147 bp 601 DNA) (Xenopus laevis). Nature of the assay: native gel or EMSA. (In general: In EMSA bound probe runs differently from free probe, usually more slowly.)
In assay [3] the target is T1, SET domain of Ricinus communis ATXR5 (a.a. 158-374) (Ricinus communis, UniProt B9RU15 158-374).
T1 sequence: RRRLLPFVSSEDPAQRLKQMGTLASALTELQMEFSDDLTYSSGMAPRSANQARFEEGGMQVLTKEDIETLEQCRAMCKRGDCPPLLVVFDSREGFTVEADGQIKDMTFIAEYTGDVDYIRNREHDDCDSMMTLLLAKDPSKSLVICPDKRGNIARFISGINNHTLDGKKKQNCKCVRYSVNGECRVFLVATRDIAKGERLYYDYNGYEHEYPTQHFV
Description: crystal structure.

Square brackets hold non-standard residues; d marks the D form. Ends that are not written are not given here. Arg(Me2a) = CN(C)C(=N)NCCC[C@H](N)C(=O)O; Lys(Me3) = C[N+](C)(C)CCCC[C@H](N)C(=O)O

For `Nc1ncnc2c1ncn2[C@@H]1O[C@H](C[C@@H](N)CC[C@H](N)C(=O)O)[C@@H](O)[C@H]1O` [SFG, sinefungin], the “GST pull-down, compound-dependent association with GST-PHD” value in assay [1] is listed as “PHD domain of ATXR5 senses the binding of sinefungin to the SET domain”.
One may read the Kd as the free concentration of one partner at which half of the binding sites on the other are occupied at equilibrium, for simple one-to-one binding. Consider “full-length Glycine max ATXR5 (a.a. 1-334) (enzyme)”, for which the Kd in assay [2] amounted to 380 nM.
Turning to KQLATKAA[Arg(Me2a)]KSAPATGGVKY (not fully specified) [histone H3.1 peptide (a.a. 18-36) R26me2a], the binding result in assay [3] is “binds”.
On the same count and under the same terms, in the case of KQLATKAARKSAPATGGV[Lys(Me3)]Y [histone H3.1 peptide (a.a. 18-36) K36me3] it was “binds”; in that of KQLATKAA[Rme1]KSAPATGGVKY [histone H3.1 peptide (a.a. 18-36) R26me1], “binds”.
